Drawing on the supplement of paper PMC10567573, this text covers protein stability index for 94 variants.

B1: LPCAT4 (parent)
chain: HDPLYGKLFSTYLRPPHTSRGTSQ
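Also: lentivirally expressed fusions sorted by FACS into six bins by GFP to DsRed ratio, PSI derived from sequencing read proportions per bin multiplied by bin number.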

The variants in this data set derive from B1. As to the kind of experiment: protein stability index of a GFP-peptide fusion (GPS, HEK-293T) (PSI 1-6); higher = more stable. Particulars: c terminus: a fixed tail appended.
Regarding HDPLYGKLFSTYLRPPHTSRTTSQ [G21T], the protein stability index was determined as 2.49.
The figure for HDPLYGKLFSTYLRPPHTSRLTSQ [G21L] is 2.48; for HDPLYGKLFSTYLRPPHTSRFTSQ [G21F] it is 2.46.
In the case of HDPLYGKLFSTYLRPPHTSRDTSQ [G21D], the protein stability index was 3.4.
The figure for HDPLYGKLFSTYLRPPHTSRPTSQ [G21P] is 2.56.
The figure for HDPLYGKLFSTYLRPPHTSRSTSQ [G21S] is 2.67; for HDPLYGKLFSTYLRPPHTSRWTSQ [G21W] it is 2; for HDPLYGKLFSTYLRPPHTSRYTSQ [G21Y] it is 1.87.
The figure for HDPLYGKLFSTYLRPPHTSRQTSQ [G21Q] is 2.95; for HDPLYGKLFSTYLRPPHTSRNTSQ [G21N] it is 2.42; for HDPLYGKLFSTYLRPPHTSRRTSQ [G21R] it is 2.42.
For HDPLYGKLFSTYLRPPHTSRKTSQ [G21K], the protein stability index turned out to be 2.55.
The figure for HDPLYGKLFSTYLRPPHTSRETSQ [G21E] is 2.69; for HDPLYGKLFSTYLRPPHTSRATSQ [G21A] it is 2.95.
The figure for HDPLYGKLFSTYLRPPHTSRCTSQ [G21C] is 2.51.
For HDPLYGKLFSTYLRPPHTSRVTSQ [G21V], the protein stability index stood at 2.82.
With HDPLYGKLFSTYLRPPHTSRMTSQ [G21M], the protein stability index amounted to 2.67.
For the variant HDPLYGKLFSTYLRPPHTSRITSQ [G21I], the protein stability index stood at 2.41.
As for HDPLYGKLFSTYLRPPHTSRHTSQ [G21H], the protein stability index turned out to be 2.11.
As to HDPLYGKLFSTYLRPPHTSRGTSR [Q24R], the protein stability index is 2.39.
Consider HDPLYGKLFSTYLRPPHTSRGTSY [Q24Y], for which the protein stability index is 2.07.
Turning to HDPLYGKLFSTYLRPPHTSRGTSI [Q24I], the protein stability index was found to be 2.11.
The figure for HDPLYGKLFSTYLRPPHTSRGTSP [Q24P] is 2.43.
The figure for HDPLYGKLFSTYLRPPHTSRGTSH [Q24H] is 2.3.
The figure for HDPLYGKLFSTYLRPPHTSRGTSD [Q24D] is 3.28; for HDPLYGKLFSTYLRPPHTSRGTSE [Q24E] it is 3.01.
Turning to HDPLYGKLFSTYLRPPHTSRGTSA [Q24A], the protein stability index worked out at 2.28.
As to HDPLYGKLFSTYLRPPHTSRGTSL [Q24L], the protein stability index came out at 2.29.
In the case of HDPLYGKLFSTYLRPPHTSRGTSV [Q24V], the protein stability index came out at 2.42.
With HDPLYGKLFSTYLRPPHTSRGTSS [Q24S], the protein stability index worked out at 2.72.
In the case of HDPLYGKLFSTYLRPPHTSRGTSC [Q24C], the protein stability index is 2.64.
HDPLYGKLFSTYLRPPHTSRGTST [Q24T]: the protein stability index came to 2.53.
Regarding HDPLYGKLFSTYLRPPHTSRGTSF [Q24F], the protein stability index is 2.28.
The figure for HDPLYGKLFSTYLRPPHTSRGTSG [Q24G] is 2.36; for HDPLYGKLFSTYLRPPHTSRGTSK [Q24K] it is 2.56; for HDPLYGKLFSTYLRPPHTSRGTSM [Q24M] it is 2.45.
The figure for HDPLYGKLFSTYLRPPHTSRGTSN [Q24N] is 2.78; for HDPLYGKLFSTYLRPPHTSRGTSW [Q24W] it is 2.13.
For the variant HDPLYGKLFSTYLRPPHTDRGTSQ [S19D], the protein stability index was determined as 3.1.
The figure for HDPLYGKLFSTYLRPPHTTRGTSQ [S19T] is 2.61.
HDPLYGKLFSTYLRPPHTGRGTSQ [S19G]: the protein stability index was 2.8.
In the case of HDPLYGKLFSTYLRPPHTCRGTSQ [S19C], the protein stability index was 2.91.
The figure for HDPLYGKLFSTYLRPPHTERGTSQ [S19E] is 2.44; for HDPLYGKLFSTYLRPPHTKRGTSQ [S19K] it is 2.62; for HDPLYGKLFSTYLRPPHTVRGTSQ [S19V] it is 2.55.
As to HDPLYGKLFSTYLRPPHTYRGTSQ [S19Y], the protein stability index turned out to be 2.38.
HDPLYGKLFSTYLRPPHTPRGTSQ [S19P]: the protein stability index came out at 2.7.
As for HDPLYGKLFSTYLRPPHTARGTSQ [S19A], the protein stability index was found to be 2.72.
Turning to HDPLYGKLFSTYLRPPHTNRGTSQ [S19N], the protein stability index came to 3.12.
HDPLYGKLFSTYLRPPHTRRGTSQ [S19R]: the protein stability index came out at 2.74.
The figure for HDPLYGKLFSTYLRPPHTIRGTSQ [S19I] is 2.79; for HDPLYGKLFSTYLRPPHTMRGTSQ [S19M] it is 2.35.
On to HDPLYGKLFSTYLRPPHTFRGTSQ [S19F], for which the protein stability index is 2.07.
The figure for HDPLYGKLFSTYLRPPHTLRGTSQ [S19L] is 2.36; for HDPLYGKLFSTYLRPPHTWRGTSQ [S19W] it is 1.95; for HDPLYGKLFSTYLRPPHTHRGTSQ [S19H] it is 2.29.
The figure for HDPLYGKLFSTYLRPPHTQRGTSQ [S19Q] is 2.51; for HDPLYGKLFSTYLRPPHTSMGTSQ [R20M] it is 2.08; for HDPLYGKLFSTYLRPPHTSDGTSQ [R20D] it is 2.67.
The figure for HDPLYGKLFSTYLRPPHTSKGTSQ [R20K] is 2.8.
In the case of HDPLYGKLFSTYLRPPHTSGGTSQ [R20G], the protein stability index was determined as 2.83.
As to HDPLYGKLFSTYLRPPHTSCGTSQ [R20C], the protein stability index worked out at 2.36.
In the case of HDPLYGKLFSTYLRPPHTSFGTSQ [R20F], the protein stability index was 2.17.
For HDPLYGKLFSTYLRPPHTSVGTSQ [R20V], the protein stability index amounted to 2.29.
The figure for HDPLYGKLFSTYLRPPHTSHGTSQ [R20H] is 2.86; for HDPLYGKLFSTYLRPPHTSNGTSQ [R20N] it is 2.56.
The figure for HDPLYGKLFSTYLRPPHTSWGTSQ [R20W] is 2.2.
On to HDPLYGKLFSTYLRPPHTSIGTSQ [R20I], for which the protein stability index came out at 2.43.
The figure for HDPLYGKLFSTYLRPPHTSQGTSQ [R20Q] is 2.85.
Turning to HDPLYGKLFSTYLRPPHTSSGTSQ [R20S], the protein stability index was 2.58.
The figure for HDPLYGKLFSTYLRPPHTSPGTSQ [R20P] is 2.66; for HDPLYGKLFSTYLRPPHTSLGTSQ [R20L] it is 2.19; for HDPLYGKLFSTYLRPPHTSAGTSQ [R20A] it is 2.78.
The figure for HDPLYGKLFSTYLRPPHTSYGTSQ [R20Y] is 2.3; for HDPLYGKLFSTYLRPPHTSTGTSQ [R20T] it is 2.67; for HDPLYGKLFSTYLRPPHTSEGTSQ [R20E] it is 3.53.
As to HDPLYGKLFSTYLRPPHSSRGTSQ [T18S], the protein stability index is 2.3.
HDPLYGKLFSTYLRPPHHSRGTSQ [T18H]: the protein stability index worked out at 2.61.
The figure for HDPLYGKLFSTYLRPPHVSRGTSQ [T18V] is 2.68; for HDPLYGKLFSTYLRPPHPSRGTSQ [T18P] it is 2.45.
Regarding HDPLYGKLFSTYLRPPHCSRGTSQ [T18C], the protein stability index is 2.66.
For the variant HDPLYGKLFSTYLRPPHKSRGTSQ [T18K], the protein stability index came to 2.65.
Consider HDPLYGKLFSTYLRPPHYSRGTSQ [T18Y], for which the protein stability index was found to be 2.29.
For HDPLYGKLFSTYLRPPHNSRGTSQ [T18N], the protein stability index is 3.05.
The figure for HDPLYGKLFSTYLRPPHMSRGTSQ [T18M] is 2.57; for HDPLYGKLFSTYLRPPHDSRGTSQ [T18D] it is 2.83; for HDPLYGKLFSTYLRPPHISRGTSQ [T18I] it is 2.52.
The figure for HDPLYGKLFSTYLRPPHRSRGTSQ [T18R] is 2.57; for HDPLYGKLFSTYLRPPHWSRGTSQ [T18W] it is 2.12.
The figure for HDPLYGKLFSTYLRPPHGSRGTSQ [T18G] is 2.41.
On to HDPLYGKLFSTYLRPPHQSRGTSQ [T18Q], for which the protein stability index was 2.61.
In the case of HDPLYGKLFSTYLRPPHLSRGTSQ [T18L], the protein stability index is 2.42.
The figure for HDPLYGKLFSTYLRPPHFSRGTSQ [T18F] is 2.24.
In the case of HDPLYGKLFSTYLRPPHESRGTSQ [T18E], the protein stability index amounted to 2.6.
